From patent US20180155451A1 (published 2018)

T1: FcγRIIb extracellular domain with C-terminal His tag (human, UniProt P31994 43-217)
T1 construct: extracellular domain; Soluble receptor expressed in FreeStyle293 cells, used as analyte in Biacore; also called FcgRIIb; 2b; not shown: His tag at the C terminus
T1 sequence (looked up): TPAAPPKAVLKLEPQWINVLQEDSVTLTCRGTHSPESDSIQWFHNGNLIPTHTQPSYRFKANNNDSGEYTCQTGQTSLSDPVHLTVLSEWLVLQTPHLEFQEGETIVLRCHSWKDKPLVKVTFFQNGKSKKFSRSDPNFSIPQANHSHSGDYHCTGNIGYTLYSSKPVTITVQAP

B1: GpH7-A5/GpH7-B3 variant L328_07I/GpL16-k0 (antibody, human IgG1, kappa)
heavy 1: not shown
heavy 2: not shown
light: DIVMTQSPLSLPVTPGEPASISCQASESLVHSNRNTYLHWYLQKPGQSPQLLIYKVSNRFSGVPDRFSGSGSGTDFTLKISRVEAEDVGVYYCSQNTHVPPTFGQGTKVEIERTVAAPSVFIFPPSDEQLKSGTASVVCLLNNFYPREAKVQWKVDNALQSGNSQESVTEQDSKDSTYSLSSTLTLSKADYEKHKVYACEVTHQGLSSPVTKSFNRGEC
notes: Heterodimerized anti-glypican-3 IgG1; L328I (EU) only in the GpH7-B3 chain; also called He Ab
B2: GpH7-A5/GpH7-B3 variant P331_16H/GpL16-k0 (antibody, human IgG1, kappa)
heavy 1: not shown
heavy 2: not shown
light: DIVMTQSPLSLPVTPGEPASISCQASESLVHSNRNTYLHWYLQKPGQSPQLLIYKVSNRFSGVPDRFSGSGSGTDFTLKISRVEAEDVGVYYCSQNTHVPPTFGQGTKVEIERTVAAPSVFIFPPSDEQLKSGTASVVCLLNNFYPREAKVQWKVDNALQSGNSQESVTEQDSKDSTYSLSSTLTLSKADYEKHKVYACEVTHQGLSSPVTKSFNRGEC
notes: Heterodimerized anti-glypican-3 IgG1; P331H (EU) only in the GpH7-B3 chain; also called He Ab
B3: GpH7-A5/GpH7-B3 variant L328_09D/GpL16-k0 (antibody, human IgG1, kappa)
heavy 1: not shown
heavy 2: not shown
light: DIVMTQSPLSLPVTPGEPASISCQASESLVHSNRNTYLHWYLQKPGQSPQLLIYKVSNRFSGVPDRFSGSGSGTDFTLKISRVEAEDVGVYYCSQNTHVPPTFGQGTKVEIERTVAAPSVFIFPPSDEQLKSGTASVVCLLNNFYPREAKVQWKVDNALQSGNSQESVTEQDSKDSTYSLSSTLTLSKADYEKHKVYACEVTHQGLSSPVTKSFNRGEC
notes: Heterodimerized anti-glypican-3 IgG1; L328D (EU) only in the GpH7-B3 chain; also called He Ab
B4: GpH7-A5/GpH7-B3 variant P331_18N/GpL16-k0 (antibody, human IgG1, kappa)
heavy 1: not shown
heavy 2: not shown
light: DIVMTQSPLSLPVTPGEPASISCQASESLVHSNRNTYLHWYLQKPGQSPQLLIYKVSNRFSGVPDRFSGSGSGTDFTLKISRVEAEDVGVYYCSQNTHVPPTFGQGTKVEIERTVAAPSVFIFPPSDEQLKSGTASVVCLLNNFYPREAKVQWKVDNALQSGNSQESVTEQDSKDSTYSLSSTLTLSKADYEKHKVYACEVTHQGLSSPVTKSFNRGEC
notes: Heterodimerized anti-glypican-3 IgG1; P331N (EU) only in the GpH7-B3 chain; also called He Ab
B5: GpH7-A5/GpH7-B3 variant L328_14T/GpL16-k0 (antibody, human IgG1, kappa)
heavy 1: not shown
heavy 2: not shown
light: DIVMTQSPLSLPVTPGEPASISCQASESLVHSNRNTYLHWYLQKPGQSPQLLIYKVSNRFSGVPDRFSGSGSGTDFTLKISRVEAEDVGVYYCSQNTHVPPTFGQGTKVEIERTVAAPSVFIFPPSDEQLKSGTASVVCLLNNFYPREAKVQWKVDNALQSGNSQESVTEQDSKDSTYSLSSTLTLSKADYEKHKVYACEVTHQGLSSPVTKSFNRGEC
notes: Heterodimerized anti-glypican-3 IgG1; L328T (EU) only in the GpH7-B3 chain; also called He Ab
B6: GpH7-A5/GpH7-B3 variant P331_07I/GpL16-k0 (antibody, human IgG1, kappa)
heavy 1: not shown
heavy 2: not shown
light: DIVMTQSPLSLPVTPGEPASISCQASESLVHSNRNTYLHWYLQKPGQSPQLLIYKVSNRFSGVPDRFSGSGSGTDFTLKISRVEAEDVGVYYCSQNTHVPPTFGQGTKVEIERTVAAPSVFIFPPSDEQLKSGTASVVCLLNNFYPREAKVQWKVDNALQSGNSQESVTEQDSKDSTYSLSSTLTLSKADYEKHKVYACEVTHQGLSSPVTKSFNRGEC
notes: Heterodimerized anti-glypican-3 IgG1; P331I (EU) only in the GpH7-B3 chain; also called He Ab
B7: GpH7-A5/GpH7-B3 variant L328_10E/GpL16-k0 (antibody, human IgG1, kappa)
heavy 1: not shown
heavy 2: not shown
light: DIVMTQSPLSLPVTPGEPASISCQASESLVHSNRNTYLHWYLQKPGQSPQLLIYKVSNRFSGVPDRFSGSGSGTDFTLKISRVEAEDVGVYYCSQNTHVPPTFGQGTKVEIERTVAAPSVFIFPPSDEQLKSGTASVVCLLNNFYPREAKVQWKVDNALQSGNSQESVTEQDSKDSTYSLSSTLTLSKADYEKHKVYACEVTHQGLSSPVTKSFNRGEC
notes: Heterodimerized anti-glypican-3 IgG1; L328E (EU) only in the GpH7-B3 chain; also called He Ab
B8: GpH7-A5/GpH7-B3 variant L328_20W/GpL16-k0 (antibody, human IgG1, kappa)
heavy 1: not shown
heavy 2: not shown
light: DIVMTQSPLSLPVTPGEPASISCQASESLVHSNRNTYLHWYLQKPGQSPQLLIYKVSNRFSGVPDRFSGSGSGTDFTLKISRVEAEDVGVYYCSQNTHVPPTFGQGTKVEIERTVAAPSVFIFPPSDEQLKSGTASVVCLLNNFYPREAKVQWKVDNALQSGNSQESVTEQDSKDSTYSLSSTLTLSKADYEKHKVYACEVTHQGLSSPVTKSFNRGEC
notes: Heterodimerized anti-glypican-3 IgG1; L328W (EU) only in the GpH7-B3 chain; also called He Ab

Key:
[1] = target: T2, FcγRIIIa extracellular domain with C-terminal His tag (human, UniProt P08637 17-208); assay: SPR; He/Con_3a divided by He/Con_2b (FcγRIIIa over FcγRIIb)
T2 construct: extracellular domain; also called FcgRIIIa; 3a; not shown: His tag at the C terminus
T2 sequence (P08637 17-208): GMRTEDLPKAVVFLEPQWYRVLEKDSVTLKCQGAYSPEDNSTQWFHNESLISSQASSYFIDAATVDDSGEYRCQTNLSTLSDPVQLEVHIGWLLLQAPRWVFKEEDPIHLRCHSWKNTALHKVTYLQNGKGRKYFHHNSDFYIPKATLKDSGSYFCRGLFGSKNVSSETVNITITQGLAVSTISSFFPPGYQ
Procedure: (§1) Analysis of interaction between objective antibody and the FcγR was carried out using Biacore T100 (GE Healthcare). HBS-EP+ (GE Healthcare) was used as the running buffer, and the measurement temperature was set to 25° C. Chips produced by immobilizing the antigen peptide by the amine coupling method to a Series S Sencor Chip CM5 (GE Healthcare), or alternatively, chips produced by allowing preliminarily biotinylated antigen peptides to interact with and immobilize onto a Series S Sensor Chip SA (certified) (GE Healthcare) were used. Antibodies of interest were captured onto an antigen peptide-immobilized chip, and allowed to interact to each FcγR diluted with running buffer. To regenerate and repeatedly use the chip, the antibodies captured on the chip were washed off by reacting 10 mM glycine-HCl, pH 1.5.
(§2) The FcγR-binding activity of each antibody was assessed primarily using as an indicator the FcγR-binding activity and dissociation constant for FcγR.

[2] = target: T1, FcγRIIb extracellular domain with …; assay: SPR (Biacore), antibody captured on antigen peptide chip, FcγR as analyte
Procedure: as §1, §2

[3] = target: T2, FcγRIIIa extracellular domain with …; assay: as above
Procedure: as §1, §2

| Binder | He_3a/2b (IIIa/IIb) [1] [ratio] | He/Con_2b [2] | He/Con_3a [3] |
| --- | --- | --- | --- |
| B1 | 0.52 | 160 relative binding (GpH7-A5/GpH7-B3/GpL16-k0 = 100) | 84 relative binding (GpH7-A5/GpH7-B3/GpL16-k0 = 100) |
| B2 | 0.69 | 116 relative binding (GpH7-A5/GpH7-B3/GpL16-k0 = 100) | 80.2 relative binding (GpH7-A5/GpH7-B3/GpL16-k0 = 100) |
| B3 | 0.24 | 199 relative binding (GpH7-A5/GpH7-B3/GpL16-k0 = 100) | 47.8 relative binding (GpH7-A5/GpH7-B3/GpL16-k0 = 100) |
| B4 | 0.74 | 99.2 relative binding (GpH7-A5/GpH7-B3/GpL16-k0 = 100) | 73.4 relative binding (GpH7-A5/GpH7-B3/GpL16-k0 = 100) |
| B5 | 0.53 | 141 relative binding (GpH7-A5/GpH7-B3/GpL16-k0 = 100) | 75.3 relative binding (GpH7-A5/GpH7-B3/GpL16-k0 = 100) |
| B6 | 0.58 | 114 relative binding (GpH7-A5/GpH7-B3/GpL16-k0 = 100) | 66 relative binding (GpH7-A5/GpH7-B3/GpL16-k0 = 100) |
| B7 | 0.31 | 172 relative binding (GpH7-A5/GpH7-B3/GpL16-k0 = 100) | 53.4 relative binding (GpH7-A5/GpH7-B3/GpL16-k0 = 100) |
| B8 | 0.16 | 235 relative binding (GpH7-A5/GpH7-B3/GpL16-k0 = 100) | 37.4 relative binding (GpH7-A5/GpH7-B3/GpL16-k0 = 100) |
